According to a protein production outcome set (Wang et al. 2014):

Assay: label from the status in PepcDB records
For “MDVAGDEAGGTAGARDRVADRAAGRAVALGAIALLVAGALEAWAVLGGLEPARFWDTPSYLHDAGHLARGELPPLGLRMPGYPAFVALVGGRGPDLGRVAGAQAALWVASVVLAYALVRRLTGSLAAALAAGLAALSFVDLLFMAVTIYSETLCLALVCGAALATVAAFGGRTRAAVAGAGLLWAAAALVRPIFLASAGVYLLAALLLAARRALARRDVALAWAAVAAVVLAMASLNLARAGRFEFSPGAGLSLLNHVGHPAVYRHLPPDQAPIREVYERLAAEQGREWIGWWRAVGPLAQVVAPELAEAAGRLEVTAAEPVAERVALRALAAVPGGWLRVWADAAEQLLGRFALQLGWSARPDGPPQWPPGAWQHRAARDAEAAWRVGMPWLSAAALLLPPLALWLRARRRRRGDDVPGPAGAGAALATLWAIAGVNAGLSPALEPWAGQMRYRFPIQHLLLGLAIGAAVLAARALRPARGLAGAGSPAPGAGAARRT”, the protein production was “failed”.
For “MDVFATGAGQVDPAKVLSPGLVYDATTEDYLKFIQGTGMDLGMEGLGTTQARDMNVPSFALGNLAGKIEVTRTLTALTPGTYRASVNVPGVNVKVTPSVLTFGAPGEKKTFKVQFENNNAALGKFAMGSLNWQGANKTVTSPIAVRPLEHHHHHH”, the protein production was “failed”.
In the case of “MDVGMPFSGPVSFPLLVIEEELPFRIHNICSETGKFDVVLDSITNMPKYGLKIFAGVRIDMYSILGDESSGRIYTLRKGTLADFNARILAYYDKAQVINADGDTCIKMANEGYSALVGNEISIGKSFRNRMKELGLDLPSCAMASTRRIDEVIEAYEQGIDFIKNNHERAAEIISKKSGYYSEEVMKKIIGIYGHEVTKKRAELVGSRELYSRVVPELNDIEIIG”, the protein production is reported as “not failed”.
In the case of “MDVLSPGQGNNTTSPPAPFETGGNTTGISDVTVSYQVITSLLLGTLIFCAVLGNACVVAAIALERSLQNVANYLIGSLAVTDLMVSVLVLPMAALYQVLNKWTLGQVTCDLFIALDVLCCTSSILHLCAIALDRYWAITDPIDYVNKRTPRRAAALISLTWLIGFLISIPPMLGWRTPEDRSDPDACTISKDHGYTIYSTFGAFYIPLLLMLVLYGRIFRAARFRIRKTVKKVEKTGADTRHGASPAPQPKKSVNGESGSRNWRLGVESKAGGALCANGAVRQGDDGAALEVIEVHRVGNSKEHLPLPSEAGPTPCAPASFERKNERNAEAKRKMALARERKTVKTLGIIMGTFILCWLPFFIVALVLPFCESSCHMPTLLGAIINWLGYSNSLLNPVIYAYFNKDFQNAFKKIIKCKFCRQ”, the protein production is reported as “failed”.
In the case of “MDVPSPCNVLMLYPLFTAESFWSFGESCKLMGVKRPAAPLGLITVAAMLPADWTVRLIDCNTSPLGDEDLAWADVVFTGGMLPQQADTLRLIELCRAAGKPVVVGGPDPTSSPHIYERADFRVLGEAESVIDEFIAAWEGGARSGVFTAPKFQADVTRTPVPRFDLLKFEDYLYIGVQYSRGCPFTCEFCDIIELYGRVPRTKTAEQMFVELETLYRMGYRGHLDFVDDNFIGNKKSLRLFLPQLAEWQRAHGYPFEFSTEASINLADDPELLEQMGAANFFGIFVGIESPDPATLVAMRKKQNTRRNIAESIHKIYAAGILVTAGFIVGFDNEKVSMAEAMIEFIEEAAIPVSMVGLLYALPNTQLTRRLEREGRLHPGHDLAPTIGADQCTDGINFDPVRPLRDILMDYKRVLERIYSPAAYAGRIDRLMTLLDRSRQRHALAEGDIRAKLGAMETVHRVVTAIPEARGPLWQTFMNCAKRDTSSARIAVQMIAAYAHLGPFSRKVIDAIDARLAALDDETVIPAATIDATAARHLA”, the protein production is reported as “failed”.
In the case of “MDYATNCASLPKWHKVPLLSVCIPAYNRPQGLVAAVRSVVAALPREYHDQVEIVITDDSATRTAVDDLLAPWSGHWHYQHNAQRLGMVANWNTSLAKACGEFILLLHDDDYLLPQGITTILATLSQYGSQFDVFLFGVHLVDSHQRCLRRQIPRRQEWLSPAQALRQLLRHSSLVRFPALIWRRSLLDAVGYFDPTYGEATDLYQWLRFFAQKGVYTVPCATAAYRIHDQALTMGMFQAQTLATLGRIFAAAADLSLLSPAELRHCQCDFFHQFILAGTWRFLRRRQWQRAQAVYQLFDLPEVIALGRSRRWQGLRWLLGSWLWLLQQLSS”, the protein production is reported as “failed”.
In the case of “MDYLNYEEIQSLKNSLLHNIKHTYISRYMILTALYTGMRPGEIAVLTWSDIDFKNQTININKSYNHDKGRVDNYDSSEIDKSTKNTNSVRIIKVDKKFLDILSQLKQNDHEKIFIGKDGTIPTSNAVNKVWRKQLEKLNIDKPSFHFHSVRHTHVALLPFKGVPLYAISKRLGHANMSTTAKKYAYMLDELKQQVRLEHHHHHH”, the protein production is reported as “not failed”.
For “MDYLPVEVIGNILSRLGGARDVVIASATCRKWREACRKHLQTLSFNSADWPFYRDLTTNRLEILITQTIFQTMGLQGLSIMMDDANKFSAATVIAWLMYTRDTLRRLSYNVRTTPNVNILEICGRQKLEALVLAHNSITGVEPSFQRFPCLKSLSLSYVSISALDLNLLLSACPMIESLELVSLEIAMSDAQVTIELSSPTLKSVYFDGISLDKFILEADSIEFLHMKDCVLELFELIGNGTLKHFKLDDVSVIHLDIMETSESLEVVDVNHFTMVWPKFYQMISRSQKLKKLRLWDVVFDDDDEIIDVESIAAGFSHLTHLSLSYDLKDGAAHYSLQGTTQLENVTVLELGWTVINDVFSIWVEELLRRCPNLKKLIIYGVVSETKTQGDCQILATFTWSIVQLMRKYIHVEVQFEYE”, the protein production was “failed”.
For “MDYRQLHRWDLPPEEAIKVQNELRKKIKLTPYEGEPEYVAGVDLSFPGKEEGLAVIVVLEYPSFKILEVVSERGEITFPYIPGLLAFREGPLFLKAWEKLRTKPDVVVFDGQGLAHPRKLGIASHMGLFIEIPTIGVAKSRLYGTFKMPEDKRCSWSYLYDGEEIIGCVIRTKEGSAPIFVSPGHLMDVESSKRLIKAFTLPGRRIPEPTRLAHIYTQRLKKGLFLEHHHHHH”, the protein production was “not failed”.
In the case of “MEAATWILFTLGVSLILAKIGDSLVERFELPGVLGELLVGIILGNLVYFGVISSEYLPITAGSSEVIDFMAKLGVVFLLFLGALDTDLNLIKRTGITAVVSTILGVFVPLILGYLGLRWLGYDNKEAFAGGVLLTATSIGLTVRVMMDLGVLRSEVGAASLSASVIDDFLGIALIIFAVGSGSLLGLGIKIIIFFLITGVVGWYFIDHYLKFAERLGVEKGVLGFVLGMMLIFSALAEGWFAAAIEGAFMMGLILSKTAEGKRLLEEVRSIGYGFLIPIFFVHTGAMLNFKVFENLEAIKLAVVLSVIAIVGKVAGRGFGAWITAWGRGKDFLFTRENFRMSFQMGIGSIPRTEVALVALMVAIHGGAISPDDAPKFIAATLIFITISVLITPPLLKWAFREEILAQKKLLLENRKEKIESKKRGTR”, the protein production is reported as “failed”.
For “MEAFFRHAERVAHPSPRLRLLLALGHRMRGELDRGLAVLEGFPEEDPALLAEALLAQGTLLGLKGAHGEAEDVFSQGVALGETPLRARFLTSRGAARIRLGRYREAAEDLEEALFLSRKERLKEVEALALHNLAIARHHLGELAEAVRLYREVLPLKTAPLSRAYTLLSLGEALSYLGRFLEAKRTLFRAREEAWASGDYRAMGYTLLNLADLYREAGLPEAEGLYREAEAHLEKAHDPYALGLVHLGLARLGAKGSLERARALFQEGGSPGELAEWHLVAGRLCGRPEHFEEALRLAEKAGAGRLLLLARLELFLKAPSPGEAKALAREVLKAGFQDFWLWERAFPLPLLAFEAGEEGLLEALLAGVGWLRARSLKALEARTEEGPLPLPSRKELLLLLLLWRRKALEAEALARLLFPGSKNPKKRLQVAVHHLREALDPDLVRLEGEAYRAYLPPGVWWDARVKEGLLRWARRLSLPQAQARVEEALPGRFSPQAYLTDP”, the protein production was “failed”.
With “MEALVRCLRSGQFLLIIDNLESVLQPDRQWGSLFYGDFFQAWIESGGNSKVLVTTRERPELKGFEWLTLKGLQVDEGVALLTALGIKGNLGEFVELVDGHPLLLRLVADLLKEEYPQDPDLSRLADLGLGNLQQLLTDSQVVGVHRRENVGMVLVLDASFHRLSELQKALLLNISVYRGAVDSAAAVAMLPGNSAAEIEKELRNIVKRSLLVEKLNGKRRFEFQPVVLEYVRYKAGDQSEAHQRAIDYYRSVAKQPPWTTKDDVREYLEIFDHFYQLQDYDSAFDNIRVCSKFLGLCGFFVDKVELYGQLISKWKEIGERENWNYGASLTALGNAYRYLGEYQRAIELFQQSLEIFRDIGDRNGVSNSLIGLGNTYNSVGEYQRAIELFQQSLEISRDIGDRNGVGGSLMGLGNAYNSVGEYQRAIELFQQSLEISRDIGDRNGVGNSLIGLGNAYHSLGEYQRAIEFRQQSLEIFRDMGDRNGVSISLNNLGNTYYFLGEYQRAIEFHQQSLEISRDIGDCNGVGRSLNNLGNAYYSLGKYQQAIEFHQQSLEIKRDIGDRNGVGTSLNNLGTAYSSLGKYQRAIELFQQSLEIKRDIGDRNGVGTSLMNLSNAYYRCGKIREAFAVWHQAESIFQELQLPFEAMPYPQWLKSLIKFAQRGWFQFILCFIFGLIAFPFALVWLILLFLWPSISSQFRR” the protein production was “failed”.
